Substitutions are numbered along the chain they refer to.
T1: SPH-B011-A-Antigen-his蛋白 (人TIGIT) (human, UniProt Q495A1 22-141, limits assumed)
T1 construct: Analyte of the Biacore assay; also called 抗原(人TIGIT); not shown: his tag
T1 sequence (looked up): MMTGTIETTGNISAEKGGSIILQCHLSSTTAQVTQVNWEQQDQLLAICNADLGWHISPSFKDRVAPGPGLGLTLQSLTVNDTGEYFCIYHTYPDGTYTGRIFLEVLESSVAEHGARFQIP

T2: 表达于CHOK1细胞表面的人TIGIT (CHOK1/人TIGIT细胞, 吉满生物 GM-C01116) (human, UniProt Q495A1 22-244)
T2 construct: whole, on cells; Purchased cell line; also called CHOK1/hTIGIT
T2 sequence (looked up): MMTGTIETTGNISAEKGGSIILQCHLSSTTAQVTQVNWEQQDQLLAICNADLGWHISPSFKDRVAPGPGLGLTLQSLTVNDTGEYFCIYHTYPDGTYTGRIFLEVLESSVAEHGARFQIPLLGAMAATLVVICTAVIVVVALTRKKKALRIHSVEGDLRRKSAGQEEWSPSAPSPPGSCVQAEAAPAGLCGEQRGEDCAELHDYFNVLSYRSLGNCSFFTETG

B1: 人源化抗TIGIT抗体A2 (antibody, human IgG1, kappa, V domains shown)
VH: QLQLVQSGAEVKKPGASVKVSCKASGYSFTDYNMNWVRQAPGQSLEWIGVINPNHGTISYNQKFKGRVTMTRDQSTSTAYMELNSLRSEDTAVYYCANNWDVWYFDVWGQGTLVTVSS
VL: DIQMTQSPSSLSASVGDRVTITCRPSENIYSYLAWYQQKPGKAPKLLVYNAKALAEGVPSRFSGSGSGTDFTLTISSLQPEDFATYYCQHHFGAPWTFGQGTKVEIKR
notes: Humanized
B2: 人源化抗TIGIT抗体A4 (antibody, human IgG1, kappa, V domains shown)
VH: B1 VH
VL: B1 VL with K42N, A43S, D70Q, Q100G
notes: Humanized
B3: 人源化抗TIGIT抗体A3 (antibody, human IgG1, kappa, V domains shown)
VH: B1 VH
VL: B1 VL with K42N, D70Q
notes: Humanized
B4: 人源化抗TIGIT抗体A1 (antibody, human IgG1, kappa, V domains shown)
VH: B1 VH
VL: B1 VL with V48I
notes: Humanized
B5: 阳性对照抗体P4 (antibody, human IgG1, kappa, V domains shown)
VH: EVQLQQSGPGLVKPSQTLSLTCAISGDSVSSNSAAWNWIRQSPSRGLEWLGKTYYRFKWYSDYAVSVKGRITINPDTSKNQFSLQLNSVTPEDTAVFYCTRESTTYDLLAGPFDYWGQGTLVTVSS
VL: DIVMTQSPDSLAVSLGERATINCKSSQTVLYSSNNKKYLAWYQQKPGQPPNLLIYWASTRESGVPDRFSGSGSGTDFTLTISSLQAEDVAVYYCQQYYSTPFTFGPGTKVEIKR
notes: Positive control anti-TIGIT antibody
B6: 阳性对照抗体P1 (antibody, human IgG1, kappa, V domains shown)
VH: QVQLQESGPGLVKPSETLSLTCTVSGGSVSSGIYYWSWIRQPPGKGLEWIGYIYYSGSTNYNPSLKSRVTISVDTSKNQFSLKLSSVTAADTAVYYCARDYYVSGNYYNVDYYFFGVDVWGQGTTVTVSS
VL: EIVLTQSPATLSLSPGERATLSCRASQSVSSYLAWYQQKPGQAPRLLIYDASNRATGIPARFSGSGSGTDFTLTISSLEPEDFAVYYCQQRSNWPPLFTFGPGTKVDIKR
notes: as for B5
B7: 嵌合抗TIGIT抗体A0 (antibody, human IgG1, kappa, V domains shown)
VH: ELQLQQSGPELVKPGASVKISCKASGYSFTDYNMNWVKQSNGKSLEWIGVINPNHGTISYNQKFKGKATLTVDQSSSTAYMQLNSLTSEDSAVYYCANNWDVWYFDVWGTGTTVTVSS
VL: DIQMTQSPASLSASVGETVTITCRPSENIYSYLAWYRQKQGNSPQLLVYNAKALAEGVPSRFSGSGSGTQFSLKINSLQPEDFGSYYCQHHFGAPWTFGGGTKLEIKR
notes: also called B011-A-142E4C5

target: T1, SPH-B011-A-Antigen-his蛋白 (人TIGIT); test: Biacore, antibody captured on anti-Fc CM5 chip, human TIGIT-his 100nM as analyte, 25℃

Row | Kd | koff | kon | Binder
1 | 4.3 nM | 0.00241 s⁻¹ | 560000 M⁻¹ s⁻¹ | B1
2 | 4.85 nM | 0.00257 s⁻¹ | 529000 M⁻¹ s⁻¹ | B2
3 | 4.66 nM | 0.00225 s⁻¹ | 483000 M⁻¹ s⁻¹ | B3
4 | 4.62 nM | 0.00251 s⁻¹ | 544000 M⁻¹ s⁻¹ | B4

target: T2, 表达于CHOK1细胞表面的人TIGIT (CHOK1/人TIGIT细胞, …); test: flow cytometry competition, EC50 of % inhibition of Biotinylated-CD155 (0.6μg/ml) binding to CHOK1/hTIGIT cells

Row | EC50 | Binder
5 | 0.309 µg/mL | B5
6 | 0.406 µg/mL | B1
7 | 0.27 µg/mL | B2
8 | 0.427 µg/mL | B3
9 | 0.43 µg/mL | B4
10 | 0.306 µg/mL | B6
11 | 0.384 µg/mL | B7

target: T2, 表达于CHOK1细胞表面的人TIGIT (CHOK1/人TIGIT细胞, …); test: flow cytometry on CHOK1/hTIGIT cells

Row | 最大MFI | Binder
12 | 10300 MFI | B5
13 | 10600 MFI | B1
14 | 10100 MFI | B2
15 | 10200 MFI | B3
16 | 10800 MFI | B4
17 | 13500 MFI | B6
18 | 9890 MFI | B7

target: T2, 表达于CHOK1细胞表面的人TIGIT (CHOK1/人TIGIT细胞, …); test: flow cytometry competition, inhibition of Biotinylated-CD155 (0.6μg/ml) binding to CHOK1/hTIGIT cells

Row | 最大抑制 | Binder
19 | 100% | B5
20 | 99.6% | B1
21 | 99.5% | B2
22 | 99.6% | B3
23 | 99.3% | B4
24 | 100% | B6
25 | 99.2% | B7

target: T2, 表达于CHOK1细胞表面的人TIGIT (CHOK1/人TIGIT细胞, …); test: flow cytometry competition, inhibition of Biotinylated-CD155 (0.6μg/ml) binding to CHOK1/human TIGIT cells

Row | 最大抑制 | Binder
26 | 100% | B5
27 | 99.7% | B6
28 | 99.8% | B7

target: T2, 表达于CHOK1细胞表面的人TIGIT (CHOK1/人TIGIT细胞, …); test: flow cytometry competition, EC50 of % inhibition of Biotinylated-CD155 (0.6μg/ml) binding to CHOK1/human TIGIT cells

Row | EC50 | Binder
29 | 0.103 µg/mL | B5
30 | 0.189 µg/mL | B6
31 | 0.138 µg/mL | B7

target: Jurkat-hTIGIT-NFAT-CD226细胞上过表达的人TIGIT (human); test: cell-based or functional assay
Sequence (Q495A1 whole entry): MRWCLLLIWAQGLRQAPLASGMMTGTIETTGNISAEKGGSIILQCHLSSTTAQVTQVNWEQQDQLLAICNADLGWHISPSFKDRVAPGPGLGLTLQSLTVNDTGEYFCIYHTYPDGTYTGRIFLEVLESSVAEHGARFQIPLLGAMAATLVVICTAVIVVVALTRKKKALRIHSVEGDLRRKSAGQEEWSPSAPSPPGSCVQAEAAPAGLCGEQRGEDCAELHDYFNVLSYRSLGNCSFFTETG

Row | EC50(μg/ml)of RLU | Max RLU | Binder
32 | 0.357 µg/mL | 9610 RLU | B5
33 | 1.01 µg/mL | 9210 RLU | B1
34 | 0.847 µg/mL | 8810 RLU | B2
35 | 0.782 µg/mL | 9370 RLU | B3
36 | 1.18 µg/mL | 8950 RLU | B4
37 | 0.305 µg/mL | 10500 RLU | B6
38 | 1.32 µg/mL | 9270 RLU | B7

target: T2, 表达于CHOK1细胞表面的人TIGIT (CHOK1/人TIGIT细胞, …); test: flow cytometry on CHOK1/hTIGIT cells, EC50 of MFI

Row | EC50 | Binder
39 | 0.214 µg/mL | B5
40 | 0.312 µg/mL | B1
41 | 0.496 µg/mL | B2
42 | 0.329 µg/mL | B3
43 | 0.36 µg/mL | B4
44 | 0.264 µg/mL | B6
45 | ~0.139 µg/mL | B7

target: Jurkat-hTIGIT-NFAT-CD226细胞上过表达的人TIGIT (human); test: cell-based or functional assay; remark: another data set of the same source

Row | EC50(μg/ml)of RLU | 最大RLU | Binder
46 | 0.534 µg/mL | 8840 RLU | B5
47 | 0.633 µg/mL | 9080 RLU | B6
48 | 0.922 µg/mL | 8260 RLU | B7

Reference: CN114907476A (SHANGHAI PHARMACEUTICALS HOLDING CO LTD, dated 2022)
